Assay results from US6509445 (NISSIN FOOD PRODUCTS, dated 2003).

B1: chimeric protein ATFHI-ML (other)
chain: MSNELHQVPSNCDCLNGGTCVSNKYFSNIHWCNCPKKFGGQHCEIDKSKTCYEGNGHFYRGKASTDTMGRPCLPWNSATVLQQTYHAHRSDALQLGLGKHNYCRNPDNRRRPWCYVQVGLKPLVQECMVHDCADGKKPSSPPEELKFQGTVAACNLPIVRGPCRAFIQLWAFDAVKGKCVLFPYGGCQGNGNKFYSEKECREYCGVPG
B2: chimeric protein ATFHI (other)
chain: MSNELHQVPSNCDCLNGGTCVSNKYFSNIHWCNCPKKFGGQHCEIDKSKTCYEGNGHFYRGKASTDTMGRPCLPWNSATVLQQTYHAHRSDALQLGLGKHNYCRNPDNRRRPWCYVQVGLKPLVQECMVHDCADGTVAACNLPIVRGPCRAFIQLWAFDAVKGKCVLFPYGGCQGNGNKFYSEKECREYCGVPG
B3: chimeric protein ATFHI-CL (other)
chain: MSNELHQVPSNCDCLNGGTCVSNKYFSNIHWCNCPKKFGGQHCEIDKSKTCYEGNGHFYRGKASTDTMGRPCLPWNSATVLQQTYHAHRSDALQLGLGKHNYCRNPDNRRRPWCYVQVGLKPLVQECMVHDCADGTVAACNLPIVRGPCRAFIQLWAFDAVKGKCVLFPYGGCQGNGNKFYSEKECREYCGVPGDGDEELL

biological target: urokinase receptor (uPAR) (human, UniProt Q03405 23-305); assay: cell-based or functional assay
Sequence (Q03405 23-305): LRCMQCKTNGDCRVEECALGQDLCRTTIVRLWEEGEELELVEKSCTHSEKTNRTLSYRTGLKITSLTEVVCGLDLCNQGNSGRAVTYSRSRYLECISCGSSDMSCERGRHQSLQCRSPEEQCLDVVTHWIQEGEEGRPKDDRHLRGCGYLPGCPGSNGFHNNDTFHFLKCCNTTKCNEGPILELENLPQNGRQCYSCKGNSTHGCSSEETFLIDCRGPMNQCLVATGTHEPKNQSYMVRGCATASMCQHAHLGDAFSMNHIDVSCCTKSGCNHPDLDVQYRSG

Question: For B1, which “Invasion inhibitory effect ID50 (nM), A375 cells” value is on record?
Answer: 120 nM

Question: What about the “Invasion inhibitory effect ID50 (nM), DU-145 cells” value of the same binder?
Answer: 2.9 nM

Question: What about the “Invasion inhibitory effect ID50 (nM), GE0 cells” value of the same binder?
Answer: 20 nM

Question: And the “Invasion inhibitory effect ID50 (nM), H0C-I cells” value?
Answer: 50 nM

Question: What about the “Invasion inhibitory effect ID50 (nM), MDA-MB-435 cells” value of the same binder?
Answer: 5.6 nM

Question: What about the “Invasion inhibitory effect ID50 (nM), PC-3 cells” value of the same binder?
Answer: 50 nM

Question: What about the “Invasion inhibitory effect ID50 (nM), SMT-ccl cells” value of the same binder?
Answer: 10 nM

Question: How did the “Invasion inhibitory effect ID50 (nM), A375 cells” value turn out when B2 was run?
Answer: 50 nM

Question: What about the “Invasion inhibitory effect ID50 (nM), DU-145 cells” value of the same binder?
Answer: 0.5 nM

Question: And the “Invasion inhibitory effect ID50 (nM), GE0 cells” value?
Answer: 110 nM

Question: And the “Invasion inhibitory effect ID50 (nM), H0C-I cells” value?
Answer: 10 nM

Question: What about the “Invasion inhibitory effect ID50 (nM), MDA-MB-435 cells” value of the same binder?
Answer: 3.5 nM

Question: What about the “Invasion inhibitory effect ID50 (nM), PC-3 cells” value of the same binder?
Answer: 20 nM

Question: And the “Invasion inhibitory effect ID50 (nM), SMT-ccl cells” value?
Answer: 1.2 nM

Question: How did the “Invasion inhibitory effect ID50 (nM), A375 cells” value turn out when B3 was run?
Answer: 100 nM

Question: And the “Invasion inhibitory effect ID50 (nM), DU-145 cells” value?
Answer: 5 nM

Question: And the “Invasion inhibitory effect ID50 (nM), GE0 cells” value?
Answer: 200 nM

Question: And the “Invasion inhibitory effect ID50 (nM), H0C-I cells” value?
Answer: 20 nM

Question: What about the “Invasion inhibitory effect ID50 (nM), MDA-MB-435 cells” value of the same binder?
Answer: 20 nM

Question: What about the “Invasion inhibitory effect ID50 (nM), PC-3 cells” value of the same binder?
Answer: 20 nM

Question: What about the “Invasion inhibitory effect ID50 (nM), SMT-ccl cells” value of the same binder?
Answer: 1 nM
